This passage reports activity results from patent US20210054016.

Series [1] deals with T1, H3C2 RNA capping enzyme (Faustovirus D5b) (Faustovirus D5b).
T1 sequence: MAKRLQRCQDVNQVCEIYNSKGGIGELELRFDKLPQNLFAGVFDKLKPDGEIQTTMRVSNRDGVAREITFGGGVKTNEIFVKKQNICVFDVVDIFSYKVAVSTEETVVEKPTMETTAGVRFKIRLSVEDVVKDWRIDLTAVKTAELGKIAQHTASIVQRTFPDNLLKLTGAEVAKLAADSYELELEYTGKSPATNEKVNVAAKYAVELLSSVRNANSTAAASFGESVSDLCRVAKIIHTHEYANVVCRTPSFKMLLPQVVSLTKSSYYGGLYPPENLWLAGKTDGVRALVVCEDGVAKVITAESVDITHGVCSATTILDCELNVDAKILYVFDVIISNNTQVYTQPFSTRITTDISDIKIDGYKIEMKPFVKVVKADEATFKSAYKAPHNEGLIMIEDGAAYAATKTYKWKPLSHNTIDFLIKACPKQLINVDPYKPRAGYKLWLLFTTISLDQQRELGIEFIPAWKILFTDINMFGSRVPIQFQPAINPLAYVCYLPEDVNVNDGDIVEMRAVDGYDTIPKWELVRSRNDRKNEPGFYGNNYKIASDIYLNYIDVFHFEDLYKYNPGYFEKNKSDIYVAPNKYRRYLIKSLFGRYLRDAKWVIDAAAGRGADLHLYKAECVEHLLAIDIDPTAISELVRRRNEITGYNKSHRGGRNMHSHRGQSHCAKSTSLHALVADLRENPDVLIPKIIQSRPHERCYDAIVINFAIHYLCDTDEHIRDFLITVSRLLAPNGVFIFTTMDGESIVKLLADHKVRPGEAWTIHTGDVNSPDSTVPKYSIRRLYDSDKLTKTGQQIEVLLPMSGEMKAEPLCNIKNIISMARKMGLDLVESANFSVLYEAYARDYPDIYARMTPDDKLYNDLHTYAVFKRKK
The conditions noted are these: pseudouridine in place of U; 5' triphosphate; 37 C, 100 nM enzyme; larger than U counterpart.

In series [2] the target is Vaccinia capping enzyme (VCE) (Vaccinia virus) (UniProt P04298+P04318). The conditions noted are these: pseudouridine in place of U; 5' triphosphate; 37 C, 100 nM enzyme; larger than U counterpart.

As to cluc/A120 transcript with pseudouridine, the activity was determined as 100 % capped in series [1] and 68.4 % capped in series [2].
